Experimental findings from PMC4347857, “Characterization of the Mycobacterial Acyl-CoA Carboxylase Holo Complexes Reveals Their Functional Expansion into Amino Acid Catabolism” (PLoS Pathogens, 2015) are described below.

Sequences and labels used below:
B1: M. tuberculosis AccA1 (Rv2501c) (natural protein)
chain: MFDTVLVANRGEIAVRVIRTLRRLGIRSVAVYSDPDVDARHVLEADAAVRLGPAPARESYLDIGKVLDAAARTGAQAIHPGYGFLAENADFAAACERARVVFLGPPARAIEVMGDKIAAKNAVAAFDVPVVPGVARAGLTDDALVTAAAEVGYPVLIKPSAGGGGKGMRLVQDPARLPEALVSARREAMSSFGDDTLFLERFVLRPRHIEVQVLADAHGNVVHLGERECSLQRRHQKVIEEAPSPLLDPQTRERIGVAACNTARCVDYVGAGTVEFIVSAQRPDEFFFMEMNTRLQVEHPVTEAITGLDLVEWQLRVGAGEKLGFAQNDIELRGHAIEARVYAEDPAREFLPTGGRVLAVFEPAGPGVRVDSSLLGGTVVGSDYDPLLTKVIAHGADREEALDRLDQALARTAVLGVQTNVEFLRFLLADERVRVGDLDTAVLDERSADFTARPAPDDVLAAGGLYRQWALARRAQGDLWAAPSGWRGGGHMAPVRTAMRTPLRSETVSVWGPPESAQVQVGDGEIDCASVQVTREQMSVTISGLRRDYRWAEADRHLWIADERGTWHLREAEEHKIHRAVGARPAEVVSPMPGSVIAVQVESGSQISAGDVVVVVEAMKMEHSLEAPVSGRVQVLVSVGDQVKVEQVLARIKD
notes: also called BC α-subunit of the M. tuberculosis MCC

Data set [1] deals with the molecule itself. As to the kind of experiment: negative-stain electron microscopy.
Data set [2] has as its target B1. As to the kind of experiment: pull-down. Conditions: partners not purified.

As for B1, the stoichiometry N – broadly, the number of molecules, sites or subunits per partner or assembly – in data set [1] is 3.

B2: M. tuberculosis AccD1 (Rv2502c), hexa-histidine tagged (natural protein)
chain: MTTPSIAIAPSFADEHRRLVAELNNKLAAAALGGNERARKRHVSRGKLLPRERVDRLLDPGSPFLELAPLAAGGMYGDESPGAGIITGIGRVSGRQCVIVANDATVKGGTYYPMTVKKHLRAQEVALQNMLPCIYLVDSGGAFLPRQDEVFPDREHFGRIFYNQATMSAKGIPQVAAVLGSCTAGGAYVPAMSDEAVIVREQGTIFLGGPPLVKAATGEIVSAEELGGGDLHSRTSGVTDHLADDDEDALRIVRAIADTFGPCEPAQWDVRRSVEPKYPQAELYDVVPPDPRVPYDVHEVVVRIVDGSEFSEFKAKYGKTLVTAFARVHGHPVGIVANNGVLFSESALKGAHFIELCDKRKIPLLFLQNIAGFMVGRDYEAGGIAKHGAKMVTAVACARVPKLTVVIGGSYGAGNYSMCGRAYSPRFLWMWPNARISVMGGEQAASVLATVRGEQLSAAGTPWSPDEEEAFKAPIRAQYEDQGNPYYSTARLWDDGIIDPADTRTVVGLALSLCAHAPLDQVGYGVFRM
notes: also called CT β-subunit of the M. tuberculosis MCC; not shown: His6, N-terminal, kept
As to B2, the binding result in data set [2] is recorded as “binds”. The “stoichiometry N” value in data set [1] is 6.
